Test results from paper PMC9482650, “Quantitative fragmentomics allow affinity mapping of interactomes” (Nature Communications, 2022).

Tests used:
Assay in all cases: holdup assay
Design in all cases: key: below the threshold = too weak to quantify, mostly under pKd 3.1 to 4
NHERF4_4, Q86UT5 = target: NHERF4_4, Q86UT5
MAGI2_6, Q86UL8 = target: MAGI2_6, Q86UL8
MAGI2_4, Q86UL8 = conditions: plain residues with an end cap or a label only (N-terminal biotin on a linker: ttds)
Inadl_9, Q8NI35 = target: Inadl_9, Q8NI35
Chain of Inadl_9, Q8NI35 (Q8NI35 1530-1615): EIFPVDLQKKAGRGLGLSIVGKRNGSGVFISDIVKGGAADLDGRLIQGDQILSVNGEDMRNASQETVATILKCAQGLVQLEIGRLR

DLG3_3, Q92796 = target: T1, DLG3_3, Q92796; conditions: plain residues with an end cap or a label only (N-terminal biotin on a linker: ttds)
T1 sequence (Q92796 374-475, limits assumed, looked up): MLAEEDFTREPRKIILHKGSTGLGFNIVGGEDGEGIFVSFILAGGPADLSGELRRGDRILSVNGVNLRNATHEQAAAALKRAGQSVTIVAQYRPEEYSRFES

PTPN13_1, Q12923 = target: T2, PTPN13_1, Q12923
T2 sequence (Q12923 1088-1188, limits assumed, looked up): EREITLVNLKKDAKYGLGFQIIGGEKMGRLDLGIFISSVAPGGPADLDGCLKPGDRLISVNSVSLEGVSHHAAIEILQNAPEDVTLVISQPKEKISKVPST

CASK, O14936 = target: CASK, O14936
Chain of CASK, O14936 (O14936 487-570): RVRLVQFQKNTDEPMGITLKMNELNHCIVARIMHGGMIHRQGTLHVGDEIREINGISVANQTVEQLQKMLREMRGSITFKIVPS

TJP3_3, O95049 = target: T3, TJP3_3, O95049
T3 sequence (O95049 375-456, limits assumed, looked up): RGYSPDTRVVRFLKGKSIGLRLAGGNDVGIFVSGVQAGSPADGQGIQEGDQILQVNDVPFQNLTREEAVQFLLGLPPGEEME

LNX1_2, Q8TBB1 = target: LNX1_2, Q8TBB1
Chain of LNX1_2, Q8TBB1 (Q8TBB1 371-470): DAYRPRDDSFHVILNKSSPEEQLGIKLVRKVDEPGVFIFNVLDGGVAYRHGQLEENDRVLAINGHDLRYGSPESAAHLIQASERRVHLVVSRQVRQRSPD

Inadl_3, Q8NI35 = target: Inadl_3, Q8NI35
Chain of Inadl_3, Q8NI35 (Q8NI35 359-469): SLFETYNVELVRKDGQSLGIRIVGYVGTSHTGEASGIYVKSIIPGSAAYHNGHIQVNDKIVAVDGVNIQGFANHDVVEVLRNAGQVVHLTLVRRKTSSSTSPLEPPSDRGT

APBA1_1, Q02410 = target: T4, APBA1_1, Q02410
T4 sequence (Q02410 651-752, limits assumed, looked up): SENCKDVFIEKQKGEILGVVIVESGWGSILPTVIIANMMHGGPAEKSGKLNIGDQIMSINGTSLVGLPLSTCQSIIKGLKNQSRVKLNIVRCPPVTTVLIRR

DLG3_2, Q92796 = target: T5, DLG3_2, Q92796
T5 sequence (Q92796 221-321, limits assumed, looked up): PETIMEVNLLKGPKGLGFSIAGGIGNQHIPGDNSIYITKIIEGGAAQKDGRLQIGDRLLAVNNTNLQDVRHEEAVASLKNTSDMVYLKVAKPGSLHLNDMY

LNX1_1, Q8TBB1 = target: LNX1_1, Q8TBB1
Chain of LNX1_1, Q8TBB1 (Q8TBB1 261-371): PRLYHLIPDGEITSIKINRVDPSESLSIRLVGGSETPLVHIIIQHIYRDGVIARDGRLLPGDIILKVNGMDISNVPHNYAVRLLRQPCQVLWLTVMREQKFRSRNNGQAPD

TJP1_3, Q07157 = target: TJP1_3, Q07157
Chain of TJP1_3, Q07157 (Q07157 416-512): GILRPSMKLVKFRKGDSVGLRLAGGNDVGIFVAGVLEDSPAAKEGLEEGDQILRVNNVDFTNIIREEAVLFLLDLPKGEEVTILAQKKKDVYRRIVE

MAGI1_1, Q96QZ7 = target: MAGI1_1, Q96QZ7
Chain of MAGI1_1, Q96QZ7 (Q96QZ7 1-106): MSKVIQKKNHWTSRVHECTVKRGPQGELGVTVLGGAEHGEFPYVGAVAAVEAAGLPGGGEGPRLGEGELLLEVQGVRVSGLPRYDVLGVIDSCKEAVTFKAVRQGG

DLG3_1, Q92796 = target: T6, DLG3_1, Q92796
T6 sequence (Q92796 125-227, limits assumed, looked up): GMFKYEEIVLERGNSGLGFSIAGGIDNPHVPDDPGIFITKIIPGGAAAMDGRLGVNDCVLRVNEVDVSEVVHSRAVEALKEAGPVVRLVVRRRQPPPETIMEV

FRMPD2_3, Q68DX3 = target: FRMPD2_3, Q68DX3
Chain of FRMPD2_3, Q68DX3 (Q68DX3 1073-1166): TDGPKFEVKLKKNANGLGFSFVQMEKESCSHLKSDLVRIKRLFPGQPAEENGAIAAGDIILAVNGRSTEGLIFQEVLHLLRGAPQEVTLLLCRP

Inadl_8, Q8NI35 = target: Inadl_8, Q8NI35
Chain of Inadl_8, Q8NI35 (Q8NI35 1425-1530): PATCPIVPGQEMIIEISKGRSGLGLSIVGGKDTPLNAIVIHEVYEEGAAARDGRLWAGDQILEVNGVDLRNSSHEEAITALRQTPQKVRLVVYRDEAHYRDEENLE

LIN7B, Q9HAP6 = target: T7, LIN7B, Q9HAP6
T7 sequence (Q9HAP6 88-185, limits assumed, looked up): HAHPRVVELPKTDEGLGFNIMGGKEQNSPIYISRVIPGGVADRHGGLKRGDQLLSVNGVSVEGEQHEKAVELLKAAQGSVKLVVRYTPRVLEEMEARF

MPP2, Q14168 = target: T8, MPP2, Q14168
T8 sequence (Q14168 180-250, limits assumed, looked up): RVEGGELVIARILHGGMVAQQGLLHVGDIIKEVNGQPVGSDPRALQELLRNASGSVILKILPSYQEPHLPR

GRIP1_2, Q9Y3R0 = target: T9, GRIP1_2, Q9Y3R0
T9 sequence (Q9Y3R0 145-248, limits assumed, looked up): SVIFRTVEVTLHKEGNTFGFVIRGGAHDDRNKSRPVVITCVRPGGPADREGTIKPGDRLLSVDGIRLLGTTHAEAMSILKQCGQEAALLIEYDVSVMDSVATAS

SNTG1, Q9NSN8 = target: T10, SNTG1, Q9NSN8
T10 sequence (Q9NSN8 52-150, limits assumed, looked up): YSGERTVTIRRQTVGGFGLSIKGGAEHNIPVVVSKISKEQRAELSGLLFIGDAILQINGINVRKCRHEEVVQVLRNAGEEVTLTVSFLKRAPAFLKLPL

DLG4_2, P78352 = target: DLG4_2, P78352
Chain of DLG4_2, P78352 (P78352 155-259): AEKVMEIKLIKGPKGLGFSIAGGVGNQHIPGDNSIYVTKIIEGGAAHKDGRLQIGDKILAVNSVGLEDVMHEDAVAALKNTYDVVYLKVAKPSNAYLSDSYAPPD

TX1BP3, O14907 = target: T11, TX1BP3, O14907
T11 sequence (O14907 10-122, limits assumed, looked up): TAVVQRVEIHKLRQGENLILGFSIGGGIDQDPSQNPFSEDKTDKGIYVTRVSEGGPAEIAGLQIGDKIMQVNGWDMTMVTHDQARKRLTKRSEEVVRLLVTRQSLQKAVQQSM

NHERF3_3, Q5T2W1 = target: T12, NHERF3_3, Q5T2W1
T12 sequence (Q5T2W1 238-333, limits assumed, looked up): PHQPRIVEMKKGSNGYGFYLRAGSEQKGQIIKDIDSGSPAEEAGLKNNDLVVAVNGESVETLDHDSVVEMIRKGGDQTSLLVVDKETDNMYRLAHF

GIPC2, Q8TF65 = target: GIPC2, Q8TF65
Chain of GIPC2, Q8TF65 (Q8TF65 112-203): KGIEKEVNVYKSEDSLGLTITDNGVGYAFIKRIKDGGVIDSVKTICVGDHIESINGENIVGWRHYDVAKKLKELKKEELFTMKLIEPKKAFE

[1] = plain residues with an end cap or a label only (N-terminal biotin on a linker: ttds)
[2] = plain residues with an end cap or a label only (N-terminal biotin on a linker: ahx)

Chain of NHERF4_4, Q86UT5 (Q86UT5 464-550): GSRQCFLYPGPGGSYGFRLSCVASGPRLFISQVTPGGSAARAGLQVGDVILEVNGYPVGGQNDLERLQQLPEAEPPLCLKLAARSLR
Chain of MAGI2_6, Q86UL8 (Q86UL8 1141-1229): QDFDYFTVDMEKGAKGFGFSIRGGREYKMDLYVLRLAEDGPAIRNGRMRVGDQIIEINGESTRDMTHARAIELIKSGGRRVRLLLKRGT
Chain of MAGI2_4, Q86UL8 (Q86UL8 772-865): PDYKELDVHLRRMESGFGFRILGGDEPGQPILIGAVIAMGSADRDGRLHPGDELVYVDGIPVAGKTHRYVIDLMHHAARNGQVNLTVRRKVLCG

B1: ARHGEF7, Q14155;Q14155-1 (peptide)
chain: NDPAWDETNL
pKd (NHERF4_4, Q86UT5; [1]): below the threshold
pKd (MAGI2_6, Q86UL8; [1]): 3.92
pKd (MAGI2_4, Q86UL8): below the threshold
pKd (Inadl_9, Q8NI35; [1]): below the threshold
pKd (DLG3_3, Q92796): below the threshold
pKd (PTPN13_1, Q12923; [1]): below the threshold
pKd (CASK, O14936; [1]): below the threshold
pKd (TJP3_3, O95049; [1]): below the threshold
pKd (LNX1_2, Q8TBB1; [1]): below the threshold
pKd (Inadl_3, Q8NI35; [1]): below the threshold
pKd (APBA1_1, Q02410; [1]): below the threshold
pKd (DLG3_2, Q92796; [1]): below the threshold
pKd (LNX1_1, Q8TBB1; [1]): below the threshold
pKd (TJP1_3, Q07157; [1]): below the threshold
pKd (MAGI1_1, Q96QZ7; [1]): below the threshold
pKd (DLG3_1, Q92796; [1]): below the threshold
pKd (FRMPD2_3, Q68DX3; [1]): below the threshold
pKd (Inadl_8, Q8NI35; [1]): below the threshold
pKd (LIN7B, Q9HAP6; [1]): below the threshold
pKd (MPP2, Q14168; [1]): below the threshold
pKd (GRIP1_2, Q9Y3R0; [1]): below the threshold
pKd (SNTG1, Q9NSN8; [1]): 4.26
pKd (DLG4_2, P78352; [1]): below the threshold
pKd (TX1BP3, O14907; [1]): 5.76
pKd (NHERF3_3, Q5T2W1; [1]): below the threshold

B2: PLCB4, Q15147 (peptide)
chain: EMDRRPATVV
pKd (NHERF4_4, Q86UT5; [1]): below the threshold
pKd (MAGI2_6, Q86UL8; [1]): below the threshold
pKd (MAGI2_4, Q86UL8): 3.77
pKd (DLG3_3, Q92796): 3.78
pKd (PTPN13_1, Q12923; [1]): below the threshold
pKd (CASK, O14936; [1]): below the threshold
pKd (TJP3_3, O95049; [1]): below the threshold
pKd (GIPC2, Q8TF65; [1]): 3.48
pKd (LNX1_2, Q8TBB1; [1]): 3.67
pKd (APBA1_1, Q02410; [1]): below the threshold
pKd (DLG3_2, Q92796; [1]): 4.24
pKd (LNX1_1, Q8TBB1; [1]): 4.01
pKd (TJP1_3, Q07157; [1]): below the threshold
pKd (MAGI1_1, Q96QZ7; [1]): below the threshold
pKd (DLG3_1, Q92796; [1]): below the threshold
pKd (FRMPD2_3, Q68DX3; [1]): 4.01
pKd (LIN7B, Q9HAP6; [1]): below the threshold
pKd (MPP2, Q14168; [1]): below the threshold
pKd (GRIP1_2, Q9Y3R0; [1]): 3.72
pKd (SNTG1, Q9NSN8; [1]): below the threshold
pKd (DLG4_2, P78352; [1]): 4.25
pKd (TX1BP3, O14907; [1]): 3.73
pKd (NHERF3_3, Q5T2W1; [1]): below the threshold

B3: HPV35-E6, P27228 (peptide)
chain: SKPTRRETEV
pKd (NHERF4_4, Q86UT5; [1]): below the threshold
pKd (MAGI2_6, Q86UL8; [1]): 3.49
pKd (MAGI2_4, Q86UL8): 4.34
pKd (Inadl_9, Q8NI35; [1]): below the threshold
pKd (DLG3_3, Q92796): 5.18
pKd (PTPN13_1, Q12923; [1]): below the threshold
pKd (CASK, O14936; [1]): below the threshold
pKd (TJP3_3, O95049; [1]): below the threshold
pKd (GIPC2, Q8TF65; [1]): below the threshold
pKd (LNX1_2, Q8TBB1; [1]): below the threshold
pKd (Inadl_3, Q8NI35; [1]): below the threshold
pKd (APBA1_1, Q02410; [1]): below the threshold
pKd (DLG3_2, Q92796; [1]): 5.49
pKd (LNX1_1, Q8TBB1; [1]): below the threshold
pKd (TJP1_3, Q07157; [1]): below the threshold
pKd (MAGI1_1, Q96QZ7; [1]): below the threshold
pKd (DLG3_1, Q92796; [1]): 4.45
pKd (FRMPD2_3, Q68DX3; [1]): below the threshold
pKd (Inadl_8, Q8NI35; [1]): below the threshold
pKd (LIN7B, Q9HAP6; [1]): 3.49
pKd (MPP2, Q14168; [1]): below the threshold
pKd (GRIP1_2, Q9Y3R0; [1]): below the threshold
pKd (SNTG1, Q9NSN8; [1]): 4.31
pKd (DLG4_2, P78352; [1]): 5.51
pKd (TX1BP3, O14907; [1]): 4.93
pKd (NHERF3_3, Q5T2W1; [1]): below the threshold

B4: PPP1R13L, Q8WUF5 (peptide)
chain: PRVKPQRSKV
pKd (NHERF4_4, Q86UT5; [1]): below the threshold
pKd (MAGI2_6, Q86UL8; [1]): below the threshold
pKd (MAGI2_4, Q86UL8): below the threshold
pKd (Inadl_9, Q8NI35; [1]): below the threshold
pKd (DLG3_3, Q92796): below the threshold
pKd (PTPN13_1, Q12923; [1]): below the threshold
pKd (CASK, O14936; [1]): below the threshold
pKd (TJP3_3, O95049; [1]): below the threshold
pKd (GIPC2, Q8TF65; [1]): below the threshold
pKd (LNX1_2, Q8TBB1; [1]): below the threshold
pKd (Inadl_3, Q8NI35; [1]): below the threshold
pKd (APBA1_1, Q02410; [1]): below the threshold
pKd (DLG3_2, Q92796; [1]): 3.73
pKd (LNX1_1, Q8TBB1; [1]): below the threshold
pKd (TJP1_3, Q07157; [1]): below the threshold
pKd (MAGI1_1, Q96QZ7; [1]): below the threshold
pKd (DLG3_1, Q92796; [1]): below the threshold
pKd (FRMPD2_3, Q68DX3; [1]): below the threshold
pKd (Inadl_8, Q8NI35; [1]): 4.35
pKd (LIN7B, Q9HAP6; [1]): below the threshold
pKd (MPP2, Q14168; [1]): below the threshold
pKd (GRIP1_2, Q9Y3R0; [1]): below the threshold
pKd (SNTG1, Q9NSN8; [1]): below the threshold
pKd (DLG4_2, P78352; [1]): below the threshold
pKd (TX1BP3, O14907; [1]): 3.82
pKd (NHERF3_3, Q5T2W1; [1]): below the threshold

B5: GRIN1, Q05586;Q05586-2 (peptide)
chain: LSDPSVSTVV
pKd (NHERF4_4, Q86UT5; [2]): below the threshold
pKd (MAGI2_6, Q86UL8; [2]): below the threshold
pKd (Inadl_9, Q8NI35; [2]): below the threshold
pKd (PTPN13_1, Q12923; [2]): below the threshold
pKd (CASK, O14936; [2]): below the threshold
pKd (TJP3_3, O95049; [2]): below the threshold
pKd (GIPC2, Q8TF65; [2]): below the threshold
pKd (LNX1_2, Q8TBB1; [2]): below the threshold
pKd (Inadl_3, Q8NI35; [2]): below the threshold
pKd (APBA1_1, Q02410; [2]): below the threshold
pKd (DLG3_2, Q92796; [2]): 4.58
pKd (LNX1_1, Q8TBB1; [2]): 4.17
pKd (TJP1_3, Q07157; [2]): below the threshold
pKd (MAGI1_1, Q96QZ7; [2]): below the threshold
pKd (DLG3_1, Q92796; [2]): below the threshold
pKd (FRMPD2_3, Q68DX3; [2]): below the threshold
pKd (Inadl_8, Q8NI35; [2]): below the threshold
pKd (LIN7B, Q9HAP6; [2]): below the threshold
pKd (MPP2, Q14168; [2]): below the threshold
pKd (GRIP1_2, Q9Y3R0; [2]): below the threshold
pKd (SNTG1, Q9NSN8; [2]): below the threshold
pKd (DLG4_2, P78352; [2]): 4.31
pKd (TX1BP3, O14907; [2]): below the threshold
pKd (NHERF3_3, Q5T2W1; [2]): below the threshold
